Data published in US20040228866A1 (LUDWIG INSTITUTE FOR CANCER RESEARCH, published 2004).

T1: p63γ (UniProt Q9H3D4-5 40-487, limits assumed)
T1 sequence (looked up): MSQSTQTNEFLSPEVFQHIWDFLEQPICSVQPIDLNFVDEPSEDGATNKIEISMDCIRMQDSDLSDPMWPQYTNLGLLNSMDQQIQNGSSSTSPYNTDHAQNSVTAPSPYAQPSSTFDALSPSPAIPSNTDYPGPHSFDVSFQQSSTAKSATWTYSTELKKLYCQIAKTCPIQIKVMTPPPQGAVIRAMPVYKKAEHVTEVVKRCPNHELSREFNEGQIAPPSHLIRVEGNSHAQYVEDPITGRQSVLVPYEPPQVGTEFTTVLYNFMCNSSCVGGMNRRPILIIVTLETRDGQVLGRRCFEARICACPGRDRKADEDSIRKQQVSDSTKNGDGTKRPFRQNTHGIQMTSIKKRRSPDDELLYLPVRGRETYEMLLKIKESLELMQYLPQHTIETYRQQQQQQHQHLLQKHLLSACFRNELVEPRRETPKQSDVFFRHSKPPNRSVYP


Assays:
p63γ = target: T1, p63γ; assay: cell-based or functional assay
p53 (wild type) = p53 (wild type) (human, UniProt P04637 1-393); assay: cell-based or functional assay
Chain of p53 (wild type) (P04637 whole entry): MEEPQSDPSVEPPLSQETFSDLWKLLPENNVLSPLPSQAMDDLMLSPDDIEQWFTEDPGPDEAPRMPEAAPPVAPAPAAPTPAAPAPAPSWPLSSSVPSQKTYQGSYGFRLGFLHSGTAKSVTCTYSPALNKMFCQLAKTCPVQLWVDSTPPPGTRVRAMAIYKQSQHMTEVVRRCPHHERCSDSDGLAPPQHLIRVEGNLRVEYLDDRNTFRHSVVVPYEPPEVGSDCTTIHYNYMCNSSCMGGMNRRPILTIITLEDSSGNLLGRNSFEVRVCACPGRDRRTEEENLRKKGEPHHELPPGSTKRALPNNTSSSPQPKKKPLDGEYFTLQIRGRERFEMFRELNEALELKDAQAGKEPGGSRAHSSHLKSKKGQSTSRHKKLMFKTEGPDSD

Binder | transactivation function on the Bax promoter (Bax-luc reporter) (p63γ) | transactivation function on the Bax promoter (Bax-luc reporter) (p53 (wild type))
Apoptosis Stimulating Protein 1 (ASPP1) (other) MMPMILTVFLSNNEQILTEVPITPETTCRDVVEFCKEPGEGSCHLAEVWRGNERPIPFDHMMYEHLQIWGPRREEVKFFLRHEDSPTENSEQGGRQTQEQRTQRNVINVPGDKRTEYGVGNPRVELTLSELQDMAARQQQQIENQQQMLVAKEQRLHFLKQQERRQQQSISENEKLQKLKERVEAQENKLKKIRAMRGQVDYSKIMNGNLSAEIERFSAMFQEKKQEVQTAILRVDQLSQQLEDLKKGKLNGFQSYNGKLTGPAAVELKRLYQELQIRNQLNQEQNSKLQQQKELLNKRNMEVAMMDKRISELRERLYGKKIQLNRVNGTSSPQSPLSTSGRVAAVGPYIQVPSAGSFPVLGDPIKPQSLSIASNAAHGRSKSANDGNWPTLKQNSSSSVKPVQVAGADWKDPSVEGSVKQGTVSSQPVPFSALGPTEKPGIEIGKVPPPIPGVGKQLPPSYGTYPSPTPLGPGSTSSLERRKEGSLPRPSAGLPSRQRPTLLPATGSTPQPGSSQQIQQRISVPPSPTYPPAGPPAFPAGDSKPELPLTVAIRPFLADKGSRPQSPRKGPQTVNSSSIYSMYLQQATPPKNYQPAAHSALNKSVKAVYGKPVLPSGSTSPSPLPFLHGSLSTGTPQPQPPSESTEKEPEQDGPAAPADGSTVESLPRPLSPTKLTPIVHSPLRYQSDADLEALRRKLANAPRPLKKRSSITEPEGPGGPNIQKLLYQRFNTLAGGMEGTPFYQPSPSQDFMGTLADVDNGNTNANGNLEELPPAQPTAPLPAEPAPSSDANDNELPSPEPEELICPQTTHQTAEPAEDNNNNVATVPTTEQIPSPVAEAPSPGEEQVPPAPLPPASHPPATSTNKRTNLKKPNSERTGHGLRVRFNPLALLLDASLEGEFDLVQRIIYEVEDPSKPNDEGITPLHNAVCAGHHHIVKFLLDFGVNVNAADSDGWTPLHCAASCNSVHLCKQLVESGAAIFASTISDIETAADKCEEMEEGYIQCSQFLYGVQEKLGVMNKGVAYALWDYEAQNSDELSFHEGDALTILRRKDESETEWWWARLGDREGYVPKNLLGLYPRIKPRQRTLA | 4 fold | ~6 fold
ASPP2 (1-1128) (other) MMPMFLTVYLSNNEQHFTEVPVTPETICRDVVDLCKEPGESDCHLAEVWCGSERPVADNERMFDVLQRFGSQRNEVRFFLRHERPPGRDIVSGPRSQDPSLKRNGVKVPGEYRRKENGVNSPRMDLTLAELQEMASRQQQQIEAQQQLLATKEQRLKFLKQQDQRQQQQVAEQEKLKRLKEIAENQEAKLKKVRALKGHVEQKRLSNGKLVEEIEQMNNLFQQKQRELVLAVSKVEELTRQLEMLKNGRIDSHHDNQSAVAELDRLYKELQLRNKLNQEQNAKLQQQRECLNKRNSEVAVMDKRVNELRDRLWKKKAALQQKENLPVSSDGNLPQQAASAPSRVAAVGPYIQSSTMPRMPSRPELLVKPALPDGSLVIQASEGPMKIQTLPNMRSGAASQTKGSKIHPVGPDWSPSNADLFPSQGSASVPQSTGNALDQVDDGEVPLREKEKKVRPFSMFDAVDQSNAPPSFGTLRKNQSSEDILRDAQVANKNVAKVPPPVPTKPKQINLPYFGQTNQPPSDIKPDGSSQQLSTVVPSMGTKPKPAGQQPRVLLSPSIPSVGQDQTLSPGSKQESPPAAAVRPFTPQPSKDTLLPPFRKPQTVAASSIYSMYTQQQAPGKNFQQAVQSALTKTHTRGPHFSSVYGKPVIAAAQNQQQHPENIYSNSQGKPGSPEPETEPVSSVQENHENERIPRPLSPTKLLPFLSNPYRNQSDADLEALRKKLSNAPRPLKKRSSITEPEGPNGPNIQKLLYQRTTIAAMETISVPSYPSKSASVTASSESPVEIQNPYLHVEPEKEVVSLVPESLSPEDVGNASTENSDMPAPSPGLDYEPEGVPDNSPNLQNNPEEPNPEAPHVLDVYLEEYPPYPPPPYPSGEPEGPGEDSVSMRPPEITGQVSLPPGKRTNLRKTGSERIAHGMRVKFNPLALLLDSSLEGEFDLVQRIIYEVDDPSLPNDEGITALHNAVCAGHTEIVKFLVQFGVNVNAADSDGWTPLHCAASCNNVQVCKFLVESGAAVFAMTYSDMQTAADKCEEMEEGYTQCSQFLYGVQEKMGIMNKGVIYALWDYEPQNDDELPMKEGDCMTIIHREDEDEIEWWWARLNDKEGYVPRNLLGLYPRIKPRQRSLA | 7 fold | 20 fold
